Data as given in patent US20050276799A1 (PDL BIOPHARMA, published 2005).
Read-outs that look alike come from different tables or passages of the source.

Columns and labels:
[1] = molecular target: T1, recombinant, GPI-linked human FcRn on cell line NS0 HuFcRn (memb), clone 7-3 (human, UniProt P55899 24-297; P61769 21-119); assay: competition FACS vs biotinylated HuEP5C7-IgG2M3 on NS0 cells expressing human FcRn, FSB pH 6.0
T1 construct: Expressed from pDL208 on the surface of NS0 cells; also called human neonatal Fc receptor; not shown: human c-myc decapeptide flanked by linker peptides, then GPI linkage signal of human decay accelerating factor (vector p)

[2] = molecular target: T1, recombinant, GPI-linked human FcRn on …; assay: IC50 of wild-type / IC50 of this antibody, same assay
[3] = molecular target: T1, recombinant, GPI-linked human FcRn on …; assay: competition FACS vs biotinylated HuEP5C7-IgG2M3 on NS0 cells expressing human FcRn, FBB pH 6.0
[4] = molecular target: T1, recombinant, GPI-linked human FcRn on …; assay: competition FACS vs biotinylated OST577-IgG2M3 on NS0 cells expressing human FcRn, FBB pH 6.0
[5] = molecular target: T1, recombinant, GPI-linked human FcRn on …; assay: IC50 of wild-type / IC50 of this antibody, same assay; remark: listed apart in the source
[6] = molecular target: T2, recombinant, GPI-linked rhesus FcRn on cell line NS0 RhFcRn, clone R-3 (rhesus, UniProt H9Z6D2 24-297; Q6V7J5 21-119, GPI-linked); assay: as above
T2 construct: Expressed from pDL410 on the surface of NS0 cells; not shown: human c-myc decapeptide flanked by linker peptides, then GPI linkage signal of human decay accelerating factor (vector p)

[7] = molecular target: T1, recombinant, GPI-linked human FcRn on …; assay: as above; remark: listed apart in the source
[8] = molecular target: T1, recombinant, GPI-linked human FcRn on …; assay: as above; remark: listed apart in the source
[9] = molecular target: T2, recombinant, GPI-linked rhesus FcRn on …; assay: as above; remark: listed apart in the source
[10] = molecular target: T1, recombinant, GPI-linked human FcRn on …; assay: as above; remark: listed apart in the source
[11] = molecular target: T1, recombinant, GPI-linked human FcRn on …; assay: competition FACS vs biotinylated human IgG on NS0 cells expressing human FcRn, FBB pH 6.0
[12] = molecular target: T1, recombinant, GPI-linked human FcRn on …; assay: as above; remark: listed apart in the source
[13] = molecular target: T1, recombinant, GPI-linked human FcRn on …; assay: IC50 of wild-type / IC50 of this antibody, same assay; remark: listed apart in the source

B1: OST577-IgG2M3 wild-type (antibody)
heavy: QVQLVESGGGVVQPGRSLRLSCAASGFTFSRYGMHWVRQAPGKGLEWVAVISYDGSNKWYADSVKGRFTISRDNSKNTLFLQMHSLRAADTGVYFCAKDQLYFGSQSPGHYWGQGTLVTVSSASTKGPSVFPLAPCSRSTSESTAALGCLVKDYFPEPVTVSWNSGALTSGVHTFPAVLQSSGLYSLSSVVTVPSSNFGTQTYTCNVDHKPSNTKVDKTVERKCCVECPPCPAPPAAAPSVFLFPPKPKDTLMISRTPEVTCVVVDVSHEDPEVQFNWYVDGVEVHNAKTKPREEQFNSTFRVVSVLTVVHQDWLNGKEYKCKVSNKGLPAPIEKTISKTKGQPREPQVYTLPPSREEMTKNQVSLTCLVKGFYPSDIAVEWESNGQPENNYKTTPPMLDSDGSFFLYSKLTVDKSRWQQGNVFSCSVMHEALHNHYTQKSLSLSPSK
light: SYVLTQPPSVSVAPGQTARITCGGDNIGSKSVNWFQQKPGQAPVLVVYDDNERPSGISERFSGSNSGNTATLTISRVEAGDEADYYCQVWDSSSDHVVFGGGTKLTVLGQPKAAPSVTLFPPSSEELQANKATLVCLISDFYPGAVTVAWKADSSPVKAGVETTTPSKQSNNKYAASSYLSLTPEQWKSHRSYSCQVTHEGSTVEKTVAPTECS
notes: Human anti-HBV antibody, IgG2M3 (V234A, G237A) heavy, lambda-2 light
[1]
  IC50: 10.7 µg/mL
[2]
  Relative Binding: 1 ratio
[3]
  IC50: 9.4 µg/mL
[4]
  IC50: 11.9 µg/mL
[5]
  Relative Binding: 1 ratio
[6]
  Relative Binding: 1 ratio
[7]
  Relative Binding: 1 ratio

B2: OST577-IgG2M3 M428F (antibody)
heavy: QVQLVESGGGVVQPGRSLRLSCAASGFTFSRYGMHWVRQAPGKGLEWVAVISYDGSNKWYADSVKGRFTISRDNSKNTLFLQMHSLRAADTGVYFCAKDQLYFGSQSPGHYWGQGTLVTVSSASTKGPSVFPLAPCSRSTSESTAALGCLVKDYFPEPVTVSWNSGALTSGVHTFPAVLQSSGLYSLSSVVTVPSSNFGTQTYTCNVDHKPSNTKVDKTVERKCCVECPPCPAPPAAAPSVFLFPPKPKDTLMISRTPEVTCVVVDVSHEDPEVQFNWYVDGVEVHNAKTKPREEQFNSTFRVVSVLTVVHQDWLNGKEYKCKVSNKGLPAPIEKTISKTKGQPREPQVYTLPPSREEMTKNQVSLTCLVKGFYPSDIAVEWESNGQPENNYKTTPPMLDSDGSFFLYSKLTVDKSRWQQGNVFSCSVFHEALHNHYTQKSLSLSPSK
light: SYVLTQPPSVSVAPGQTARITCGGDNIGSKSVNWFQQKPGQAPVLVVYDDNERPSGISERFSGSNSGNTATLTISRVEAGDEADYYCQVWDSSSDHVVFGGGTKLTVLGQPKAAPSVTLFPPSSEELQANKATLVCLISDFYPGAVTVAWKADSSPVKAGVETTTPSKQSNNKYAASSYLSLTPEQWKSHRSYSCQVTHEGSTVEKTVAPTECS
[1]
  IC50: 3.4 µg/mL
[2]
  Relative Binding: 3.2 ratio
[3]
  IC50: 2.97 µg/mL
[5]
  Relative Binding: 3.1 ratio

B3: OST577-IgG2M3 T250E/M428F (antibody)
heavy: QVQLVESGGGVVQPGRSLRLSCAASGFTFSRYGMHWVRQAPGKGLEWVAVISYDGSNKWYADSVKGRFTISRDNSKNTLFLQMHSLRAADTGVYFCAKDQLYFGSQSPGHYWGQGTLVTVSSASTKGPSVFPLAPCSRSTSESTAALGCLVKDYFPEPVTVSWNSGALTSGVHTFPAVLQSSGLYSLSSVVTVPSSNFGTQTYTCNVDHKPSNTKVDKTVERKCCVECPPCPAPPAAAPSVFLFPPKPKDELMISRTPEVTCVVVDVSHEDPEVQFNWYVDGVEVHNAKTKPREEQFNSTFRVVSVLTVVHQDWLNGKEYKCKVSNKGLPAPIEKTISKTKGQPREPQVYTLPPSREEMTKNQVSLTCLVKGFYPSDIAVEWESNGQPENNYKTTPPMLDSDGSFFLYSKLTVDKSRWQQGNVFSCSVFHEALHNHYTQKSLSLSPSK
light: SYVLTQPPSVSVAPGQTARITCGGDNIGSKSVNWFQQKPGQAPVLVVYDDNERPSGISERFSGSNSGNTATLTISRVEAGDEADYYCQVWDSSSDHVVFGGGTKLTVLGQPKAAPSVTLFPPSSEELQANKATLVCLISDFYPGAVTVAWKADSSPVKAGVETTTPSKQSNNKYAASSYLSLTPEQWKSHRSYSCQVTHEGSTVEKTVAPTECS
[2]
  Relative Binding: 15 ratio
[3]
  IC50: 0.639 µg/mL

B4: Hu1D10-IgG4 wild-type (antibody)
heavy: not shown
light: DIQMTQSPSSLSASVGDRVTITCRASENIYSYLAWYQQKPGKAPKLLVSNAKTLAEGVPSRFSGSGSGKQFTLTISSLQPEDFATYYCQHHYGNSYPFGQGTKLEIKRTVAAPSVFIFPPSDEQLKSGTASVVCLLNNFYPREAKVQWKVDNALQSGNSQESVTEQDSKDSTYSLSSTLTLSKADYEKHKVYACEVTHQGLSSPVTKSFNRGEC
[8]
  Relative Binding: 1 ratio
[9]
  Relative Binding: 1 ratio

B5: Dac-IgG1 wild-type (daclizumab) (antibody)
heavy: not shown
light: DIQMTQSPSTLSASVGDRVTITCSASSSISYMHWYQQKPGKAPKLLIYTTSNLASGVPARFSGSGSGTEFTLTISSLQPDDFATYYCHQRSTYPLTFGQGTKVEVKRTVAAPSVFIFPPSDEQLKSGTASVVCLLNNFYPREAKVQWKVDNALQSGNSQESVTEQDSKDSTYSLSSTLTLSKADYEKHKVYACEVTHQGLSSPVTKSFNRGEC
notes: Humanized anti-CD25; also called Dac-IgG1 WT
[10]
  Relative Binding: 1 ratio
[11]
  IC50: 20.4 µg/mL

B6: Dac-IgG1 T250Q/M428L (antibody)
heavy: not shown
light: DIQMTQSPSTLSASVGDRVTITCSASSSISYMHWYQQKPGKAPKLLIYTTSNLASGVPARFSGSGSGTEFTLTISSLQPDDFATYYCHQRSTYPLTFGQGTKVEVKRTVAAPSVFIFPPSDEQLKSGTASVVCLLNNFYPREAKVQWKVDNALQSGNSQESVTEQDSKDSTYSLSSTLTLSKADYEKHKVYACEVTHQGLSSPVTKSFNRGEC
notes: also called T250Q/M428L daclizumab
[10]
  Relative Binding: 33 ratio
[11]
  IC50: 0.626 µg/mL

B7: Dac-IgG2M3 wild-type (antibody)
heavy: QVQLVQSGAEVKKPGSSVKVSCKASGYTFTSYRMHWVRQAPGQGLEWIGYINPSTGYTEYNQKFKDKATITADESTNTAYMELSSLRSEDTAVYYCARGGGVFDYWGQGTLVTVSSASTKGPSVFPLAPCSRSTSESTAALGCLVKDYFPEPVTVSWNSGALTSGVHTFPAVLQSSGLYSLSSVVTVPSSNFGTQTYTCNVDHKPSNTKVDKTVERKCCVECPPCPAPPAAAPSVFLFPPKPKDTLMISRTPEVTCVVVDVSHEDPEVQFNWYVDGVEVHNAKTKPREEQFNSTFRVVSVLTVVHQDWLNGKEYKCKVSNKGLPAPIEKTISKTKGQPREPQVYTLPPSREEMTKNQVSLTCLVKGFYPSDIAVEWESNGQPENNYKTTPPMLDSDGSFFLYSKLTVDKSRWQQGNVFSCSVMHEALHNHYTQKSLSLSPGK
light: DIQMTQSPSTLSASVGDRVTITCSASSSISYMHWYQQKPGKAPKLLIYTTSNLASGVPARFSGSGSGTEFTLTISSLQPDDFATYYCHQRSTYPLTFGQGTKVEVKRTVAAPSVFIFPPSDEQLKSGTASVVCLLNNFYPREAKVQWKVDNALQSGNSQESVTEQDSKDSTYSLSSTLTLSKADYEKHKVYACEVTHQGLSSPVTKSFNRGEC
notes: also called Dac-IgG2M3 WT
[12]
  IC50: 71.4 µg/mL
[13]
  Relative Binding: 1 ratio

B8: Dac-IgG2M3 T250Q/M428L (antibody)
heavy: QVQLVQSGAEVKKPGSSVKVSCKASGYTFTSYRMHWVRQAPGQGLEWIGYINPSTGYTEYNQKFKDKATITADESTNTAYMELSSLRSEDTAVYYCARGGGVFDYWGQGTLVTVSSASTKGPSVFPLAPCSRSTSESTAALGCLVKDYFPEPVTVSWNSGALTSGVHTFPAVLQSSGLYSLSSVVTVPSSNFGTQTYTCNVDHKPSNTKVDKTVERKCCVECPPCPAPPAAAPSVFLFPPKPKDQLMISRTPEVTCVVVDVSHEDPEVQFNWYVDGVEVHNAKTKPREEQFNSTFRVVSVLTVVHQDWLNGKEYKCKVSNKGLPAPIEKTISKTKGQPREPQVYTLPPSREEMTKNQVSLTCLVKGFYPSDIAVEWESNGQPENNYKTTPPMLDSDGSFFLYSKLTVDKSRWQQGNVFSCSVLHEALHNHYTQKSLSLSPGK
light: DIQMTQSPSTLSASVGDRVTITCSASSSISYMHWYQQKPGKAPKLLIYTTSNLASGVPARFSGSGSGTEFTLTISSLQPDDFATYYCHQRSTYPLTFGQGTKVEVKRTVAAPSVFIFPPSDEQLKSGTASVVCLLNNFYPREAKVQWKVDNALQSGNSQESVTEQDSKDSTYSLSSTLTLSKADYEKHKVYACEVTHQGLSSPVTKSFNRGEC
[12]
  IC50: 4.02 µg/mL
[13]
  Relative Binding: 18 ratio
